According to article PMC4858679, “PCNA is involved in the EndoQ-mediated DNA repair process in Thermococcales” (Scientific Reports, 2016):

T1: Endonuclease Q from Thermococcus kodakarensis, wild type (Thermococcus kodakarensis, UniProt Q5JI33 1-421)
T1 construct: Endonuclease Q (EndoQ), Thermococcus kodakarensis KOD1, locus TK0887, GenBank BAD85076; printed MW 48080.3; the C-terminal truncation removes residues 409-421, so the chain ends at 421; no tag is named; also called TkoEndoQ; TkoEndoQ^WT; source: E. coli, purified (as described previously)
T1 sequence (looked up): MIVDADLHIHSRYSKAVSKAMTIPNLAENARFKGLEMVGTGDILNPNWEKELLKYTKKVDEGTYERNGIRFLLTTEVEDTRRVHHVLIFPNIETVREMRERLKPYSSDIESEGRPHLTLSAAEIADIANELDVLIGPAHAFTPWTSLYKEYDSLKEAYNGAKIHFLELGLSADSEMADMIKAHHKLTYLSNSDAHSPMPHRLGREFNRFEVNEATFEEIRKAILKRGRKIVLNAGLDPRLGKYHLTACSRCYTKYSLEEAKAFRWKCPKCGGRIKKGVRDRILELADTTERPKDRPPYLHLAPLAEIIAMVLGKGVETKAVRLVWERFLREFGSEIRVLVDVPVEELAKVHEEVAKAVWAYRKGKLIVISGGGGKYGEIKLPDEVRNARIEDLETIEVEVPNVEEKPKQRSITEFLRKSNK

T2: Endonuclease Q from Pyrococcus furiosus (Pyrococcus furiosus (endogenous in P. …, UniProt Q8U0N5 1-424))
T2 sequence (looked up): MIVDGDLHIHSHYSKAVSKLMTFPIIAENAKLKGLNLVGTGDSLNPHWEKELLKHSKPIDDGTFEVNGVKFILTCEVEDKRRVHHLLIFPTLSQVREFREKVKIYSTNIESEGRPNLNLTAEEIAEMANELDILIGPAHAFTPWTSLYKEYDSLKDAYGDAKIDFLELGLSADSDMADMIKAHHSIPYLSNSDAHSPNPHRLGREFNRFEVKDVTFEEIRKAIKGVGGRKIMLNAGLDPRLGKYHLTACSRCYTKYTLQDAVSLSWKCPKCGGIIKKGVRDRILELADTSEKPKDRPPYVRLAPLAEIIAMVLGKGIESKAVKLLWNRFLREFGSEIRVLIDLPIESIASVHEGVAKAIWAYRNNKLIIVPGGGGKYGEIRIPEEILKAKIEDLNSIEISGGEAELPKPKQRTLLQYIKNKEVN

B1: Proliferating cell nuclear antigen 1 from Thermococcus kodakarensis, wild type (natural protein, UniProt Q5JF32 1-249, looked up)
chain: MPFEVVFDGAKEFADLIATASNLIDEAAFKFTEEGISMRAMDPSRVVLIDLNLPESIFSKYEVEEPETIGINMDQFKKILKRGKAKDTLILRKGDENFLEITFEGTAKRTFRLPLIDVEELELELPELPFTAKVVLLGEVLKEGIKDASLVSDAIKFIAKENEFTMKAEGETNEVEIRLTLEDEGLLDLEVEEETKSAYGIRYLSDMVKGIGKADEVILRFGNEMPLQMEYMIRDEGRLTFLLAPRVEE
notes: PCNA1 (DNA polymerase sliding clamp 1), Thermococcus kodakarensis, locus TK0535; printed MW 28239.4; also called TkoPCNA1; TkoPCNA1^WT; source: E. coli, purified (as described previously)
B2: Proliferating cell nuclear antigen from Pyrococcus furiosus (natural protein, UniProt O73947 1-249, looked up)
chain: MPFEIVFEGAKEFAQLIDTASKLIDEAAFKVTEDGISMRAMDPSRVVLIDLNLPSSIFSKYEVVEPETIGVNMDHLKKILKRGKAKDTLILKKGEENFLEITIQGTATRTFRVPLIDVEEMEVDLPELPFTAKVVVLGEVLKDAVKDASLVSDSIKFIARENEFIMKAEGETQEVEIKLTLEDEGLLDIEVQEETKSAYGVSYLSDMVKGLGKADEVTIKFGNEMPMQMEYYIRDEGRLTFLLAPRVEE

Key:
[1] = molecular target: T1, Endonuclease Q from Thermococcus …; assay: SPR; Biacore J; TkoPCNA1 immobilised on a CM5 chip, TkoEndoQ injected (12-800 nM, 120 s); 25 °C; 10 mM HEPES pH 7.4, 0.4 M NaCl, 0.005% Tween20; 1:1 reaction model; apparent KD; conditions: both partners purified
[2] = molecular target: the molecule itself; assay: SEC; gel filtration of purified TkoPCNA1 proteins; 160 μM
[3] = molecular target: T2, Endonuclease Q from Pyrococcus furiosus; assay: cell-based or functional assay

Binder | Kd [1] [nM] | binding result [2] | stimulation of the endonuclease activity of purified PfuEndoQ on dI-containing DNA by purified PfuPCNA (0.18 M NaCl) [3] [fold]
B1 | 55 | binds | 
B2 |  |  | 6 to 7
